Assay results as given in article doi:10.1101/2023.08.20.554024, “Structural framework for the understanding spectroscopic and functional signatures of the cyanobacterial Orange Carotenoid Protein families” (bioRxiv, 2023).

What was measured:
GcapOCP2(ECH) = GcapOCP2(ECH) (Gloeocapsa sp. PCC 7428); test: cell-based or functional assay
ΔNTE-SynOCP1(ECH) = target: T1, ΔNTE-SynOCP1(ECH) (Synechocystis sp. PCC 6803, UniProt P74102 13-317); test: SEC; 10 μM OCP and 20 μM FRP pre-incubated in SEC buffer (20 mM Tris-HCl pH 7.6, 150 mM NaCl) for 15 min at room temperature; Superdex 200 Increase 5/150, 0.45 ml/min; profiles at 280 or 460 (or 500) nm, compared with algebraic sums of the single profiles; conditions: both partners purified
T1 construct: Orange Carotenoid Protein (OCP1), Synechocystis sp; PCC 6803, Uniprot P74102, lacking residues Met1-Phe12 (the N-terminal extension); also called ΔNTE mutant of SynOCP1; ΔNTE-SynOCP1 holoform; source: obtained earlier [24]
T1 sequence (looked up): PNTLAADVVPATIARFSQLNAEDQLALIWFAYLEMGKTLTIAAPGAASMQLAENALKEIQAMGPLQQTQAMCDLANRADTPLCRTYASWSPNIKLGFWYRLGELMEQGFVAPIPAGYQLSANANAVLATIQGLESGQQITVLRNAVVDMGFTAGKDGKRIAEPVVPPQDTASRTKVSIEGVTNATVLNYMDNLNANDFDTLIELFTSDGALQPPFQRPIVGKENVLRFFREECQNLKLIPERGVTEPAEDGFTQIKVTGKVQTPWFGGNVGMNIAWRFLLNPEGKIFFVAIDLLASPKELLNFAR

τ1/2 of the R-O transition of GcapOCP2 (OD550 after switching off blue LED) with a two-fold molar excess of SynFRP, 5-23 °C (203 to 250 s at 5°C, 12 to 16 s at 20°C) (GcapOCP2(ECH)): 250 s | binding result (ΔNTE-SynOCP1(ECH)): binds
B1: Fluorescence Recovery Protein from Synechocystis sp. PCC 6803 (natural protein, UniProt P74103 1-109, looked up)
chain: MLQTAEAPWSQAETQSAHALFRKAYQRELDGLLATVQAQASQITQIDDLWKLHDFLSAKRHEIDGKYDDRQSVIIFVFAQLLKEGLVQAEELTFLAADKQSKIKALARL
notes: Fluorescence Recovery Protein (FRP), Synechocystis sp; PCC 6803, Uniprot P74103; also called SynFRP; FRP; source: obtained in previous works [24,30] as electrophoretically homogeneous preparation devoid of tags
